# According to article PMC6608630, “The structural characterization of a glucosylglycerate hydrolase provides insights into the molecular mechanism of mycobacterial recovery from nitrogen starvation” (IUCrJ, 2019):
# B1: MhGgH (M. hassiacum glucosylglycerate hydrolase) (Mycolicibacterium hassiacum DSM 44199) (protein)
# chain: MPHDPSFTPTQLAARAAYLLRGNDLGTMTTAAPLLYPHMWSWDAAFVAIGLAPLSVERAVVELDTLLSAQWRNGMIPHIVFANGVDGYFPGPARWATATLADNAPRNRLTSGITQPPVHAIAVQRILEHARTRGRSTRAVAEAFLDRRWGDLMRWHRWLAECRDRNERGRITLYHGWESGMDNSPRWDSAYANVVPGKLPEYQRADNVIITDPSQRPSDGEYDRYLWLLEEMKAVRYDDERLPSVMSFQVEDVFFSAIFSVACQVLAEIGEDYKRPHADVKDLYLWAERFRAGVVETTDQRTGAARDFDVLAEKWLVTETAAQFAPLLCGGLPHDRERALLKLLEGPRFCGHPDLKYGLIPSTSPVSRDFRPREYWRGPVWPVLTWLFSWCFARRGWAERARLLRQEGLRQASDGSFAEYYEPFTGEPLGSMQQSWTAAAVLDWLG
# notes: full-length from pETM11-MhGgH, N-terminal His tag removed with TEV protease leaving Gly-Ala dipeptide; E. coli BL21(DE3); homotetramer; last residue Gly446
# Tests used:
# [1] = substrate: O=C(O)[C@@H](CO)O[C@H]1O[C@H](CO)[C@@H](O)[C@H](O)[C@H]1O; assay: released glucose by glucose oxidase assay; allosteric sigmoidal fit; assay type: biochemical, Mycolicibacterium hassiacum; conditions: 20 mM sodium phosphate pH 6.0, 100 mM KCl, 5 mM MgCl2, 50 °C, Hill h 1.77, tag-less enzyme
# Excerpt: released glucose by glucose oxidase assay; allosteric sigmoidal fit on MhGgH (M. hassiacum glucosylglycerate hydrolase)
# [2] = substrate: O=C(O)[C@@H](CO)O[C@H]1O[C@H](CO)[C@@H](O)[C@H](O)[C@@H]1O; assay: released mannose by K-MANGL assay kit; allosteric sigmoidal fit; assay type: biochemical, Mycolicibacterium hassiacum; conditions: 20 mM sodium phosphate pH 6.0, 100 mM KCl, 5 mM MgCl2, 50 °C, Hill h 1.29, tag-less enzyme, rough estimation, incomplete kinetic curve
# Excerpt: released mannose by K-MANGL assay kit; allosteric sigmoidal fit on MhGgH (M. hassiacum glucosylglycerate hydrolase)
protein,measurement,setting,value
B1,K0.5,[1],9.36 ± 0.69 mM
same,Vmax,[1],3.6 µmol/min/mg
same,K0.5,[2],84.18 ± 30.27 mM
same,Vmax,[2],3.09 µmol/min/mg
